Measured values reported in patent US20250052751A1 (University of California, published 2025).

Biological target: T1, MHC class II I-A^b molecules purified by affinity chromatography (;mouse, UniProt P14434 24-218; P14483 28-226, limits assumed)
T1 construct: Source of the purified I-A^b is not described beyond 'as described (22)'; also called MHC II (I-A^b); MHC II
T1 sequence (MHC II alpha, looked up): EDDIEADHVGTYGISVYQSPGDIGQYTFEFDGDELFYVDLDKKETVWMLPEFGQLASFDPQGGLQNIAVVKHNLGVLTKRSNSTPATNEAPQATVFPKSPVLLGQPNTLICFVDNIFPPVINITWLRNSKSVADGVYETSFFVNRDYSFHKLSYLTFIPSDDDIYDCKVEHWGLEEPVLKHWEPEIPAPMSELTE
T1 sequence (MHC II beta, looked up): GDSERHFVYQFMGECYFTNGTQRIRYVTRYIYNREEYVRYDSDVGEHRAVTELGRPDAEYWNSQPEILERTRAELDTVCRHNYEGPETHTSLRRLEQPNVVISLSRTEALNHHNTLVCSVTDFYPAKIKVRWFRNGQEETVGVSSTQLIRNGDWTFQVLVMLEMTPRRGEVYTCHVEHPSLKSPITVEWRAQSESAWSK
Test: competitive binding assay, purified I-A^b, radiolabeled competitor peptide
Procedure: We have now examined AQP4 peptide affinity for I-A^b biochemically. I-A^b molecules that were purified by affinity chromatography were tested in a competitive binding assay between a radiolabeled high-affinity competitor peptide and unlabeled peptides (22). Indeed, peptides containing the two pathogenic AQP4 T cell determinants bound I-A^b with higher affinity than the nonpathogenic AQP4 p24-35 T cell epitope or MOG p35-55 (FIG. 2D).

fold greater affinity than MOG p35-55: > 10 fold
B1: AQP4 p202-218 (peptide)
peptide: LFAINYTGASMNPARSF
notes: Synthetic peptide (Genemed Synthesis); also called pathogenic AQP4 T cell determinant
